According to paper PMC6004480 (Proceedings of the National Academy of Sciences of the …, 2018):

T1: MTR4, full length (human, UniProt P42285 1-1042)
T1 sequence: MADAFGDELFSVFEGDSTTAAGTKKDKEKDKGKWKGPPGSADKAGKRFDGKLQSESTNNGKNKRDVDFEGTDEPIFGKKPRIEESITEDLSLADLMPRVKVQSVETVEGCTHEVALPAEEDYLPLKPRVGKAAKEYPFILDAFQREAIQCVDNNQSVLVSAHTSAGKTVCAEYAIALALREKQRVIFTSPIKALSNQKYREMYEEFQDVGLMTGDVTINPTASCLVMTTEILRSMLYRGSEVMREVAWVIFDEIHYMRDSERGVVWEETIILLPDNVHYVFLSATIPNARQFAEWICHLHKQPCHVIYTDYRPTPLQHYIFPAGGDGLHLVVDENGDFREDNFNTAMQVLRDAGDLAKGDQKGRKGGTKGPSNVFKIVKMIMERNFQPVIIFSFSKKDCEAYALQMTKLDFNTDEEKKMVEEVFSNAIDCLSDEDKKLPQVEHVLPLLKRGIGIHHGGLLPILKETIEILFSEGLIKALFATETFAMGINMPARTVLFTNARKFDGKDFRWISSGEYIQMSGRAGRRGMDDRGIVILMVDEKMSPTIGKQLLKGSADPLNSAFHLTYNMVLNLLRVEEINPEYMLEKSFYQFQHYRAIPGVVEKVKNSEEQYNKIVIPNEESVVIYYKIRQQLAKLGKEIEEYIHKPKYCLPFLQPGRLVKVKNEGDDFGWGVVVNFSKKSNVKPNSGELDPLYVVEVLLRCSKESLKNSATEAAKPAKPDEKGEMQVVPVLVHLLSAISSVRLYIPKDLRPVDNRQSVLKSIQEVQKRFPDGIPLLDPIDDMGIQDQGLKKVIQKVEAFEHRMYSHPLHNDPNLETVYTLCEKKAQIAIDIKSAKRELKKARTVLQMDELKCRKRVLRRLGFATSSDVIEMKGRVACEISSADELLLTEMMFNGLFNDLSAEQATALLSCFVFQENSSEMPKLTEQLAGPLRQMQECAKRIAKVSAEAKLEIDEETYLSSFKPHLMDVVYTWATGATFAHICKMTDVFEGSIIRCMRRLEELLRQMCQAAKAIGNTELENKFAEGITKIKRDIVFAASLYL


Experiments:
MTR4;ZCCHC8core;RBM7core = MTR4;ZCCHC8core;RBM7core (Homo sapiens?;Homo sapiens?;Homo …, UniProt P42285;Q6NZY4;Q9Y580 1-1042;1-707;6-94, |del416-507|); test: EMSA
MTR4, full length [1] = target: T1, MTR4, full length; test: pull-down
MTR4, full length [2] = target: T1, MTR4, full length; test: SEC

Binder | binding result (MTR4, full length [1]) | binding result (MTR4;ZCCHC8core;RBM7core) | further results
Substrate III (dsRNA) RNA 1: AGUGCGCUGUAUCUUCAAGGCCACU RNA 2: AGUGGCCUUGAAGAUACAGCGCACUAAAAAAAAAAUUUUUAAAAA |  | binds | 
Substrate II (dsRNA) RNA 1: AGUGCGCUGUAUCUUCAAGGCCACU RNA 2: AGUGGCCUUGAAGAUACAGCGCACUAAAAAUUUUUAAAAAAAAAA |  | binds | 
ZCCHC8 1-327 (Z2) (domain or fragment) MAAEVYFGDLELFEPFDHPEESIPKPVHTRFKDDDGDEEDENGVGDAELRERLRQCEETIEQLRAENQELKRKLNILTRPSGILVNDTKLDGPILQILFMNNAISKQYHQEIEEFVSNLVKRFEEQQKNDVEKTSFNLLPQPSSIVLEEDHKVEESCAIKNNKEAFSVVGSVLYFTNFCLDKLGQPLLNENPQLSEGWEIPKYHQVFSHIVSLEGQEIQVKAKRPKPHCFNCGSEEHQMKDCPMPRNAARISEKRKEYMDACGEANNQNFQQRYHAEEVEERFGRFKPGVISEELQDALGVTDKSLPPFIYRMRQLGYPPGWLKEAE | binds |  | 
Copurified complex of Strep-RBM7core and full-length ZCCHC8 (Z1) (complex) chain 1: AEADRTLFVGNLETKVTEELLFELFHQAGPVIKVKIPKDKDGKPKQFAFVNFKHEVSVPYAMNLLNGIKLYGRPIKIQFRSGSSHAPQD chain 2: MAAEVYFGDLELFEPFDHPEESIPKPVHTRFKDDDGDEEDENGVGDAELRERLRQCEETIEQLRAENQELKRKLNILTRPSGILVNDTKLDGPILQILFMNNAISKQYHQEIEEFVSNLVKRFEEQQKNDVEKTSFNLLPQPSSIVLEEDHKVEESCAIKNNKEAFSVVGSVLYFTNFCLDKLGQPLLNENPQLSEGWEIPKYHQVFSHIVSLEGQEIQVKAKRPKPHCFNCGSEEHQMKDCPMPRNAARISEKRKEYMDACGEANNQNFQQRYHAEEVEERFGRFKPGVISEELQDALGVTDKSLPPFIYRMRQLGYPPGWLKEAELENSGLALYDGKDGTDGETEVGEIQQNKSVTYDLSKLVNYPGFNISTPRGIPDEWRIFGSIPMQACQQKDVFANYLTSNFQAPGVKSGNKRSSSHSSPGSPKKQKNESNSAGSPADMELDSDMEVPHGSQSSESFQFQPPLPPDTPPLPRGTPPPVFTPPLPKGTPPLTPSDSPQTRTASGAVDEDALTLEELEEQQRRIWAALEQAESVNSDSDVPVDTPLTGNSVASSPCPNELDLPVPEGKTSEKQTLDEPEVPEIFTKKSEAGHASSPDSEVTSLCQKEKAELAPVNTEGALLDNGSVVPNCDISNGGSQKLFPADTSPSTATKIHSPIPDMSKFATGITPFEFENMAESTGMYLRIRSLLKNSPRNQQKNKKASE | binds |  | 
ZCCHC8, full length (Z1) (natural protein) MAAEVYFGDLELFEPFDHPEESIPKPVHTRFKDDDGDEEDENGVGDAELRERLRQCEETIEQLRAENQELKRKLNILTRPSGILVNDTKLDGPILQILFMNNAISKQYHQEIEEFVSNLVKRFEEQQKNDVEKTSFNLLPQPSSIVLEEDHKVEESCAIKNNKEAFSVVGSVLYFTNFCLDKLGQPLLNENPQLSEGWEIPKYHQVFSHIVSLEGQEIQVKAKRPKPHCFNCGSEEHQMKDCPMPRNAARISEKRKEYMDACGEANNQNFQQRYHAEEVEERFGRFKPGVISEELQDALGVTDKSLPPFIYRMRQLGYPPGWLKEAELENSGLALYDGKDGTDGETEVGEIQQNKSVTYDLSKLVNYPGFNISTPRGIPDEWRIFGSIPMQACQQKDVFANYLTSNFQAPGVKSGNKRSSSHSSPGSPKKQKNESNSAGSPADMELDSDMEVPHGSQSSESFQFQPPLPPDTPPLPRGTPPPVFTPPLPKGTPPLTPSDSPQTRTASGAVDEDALTLEELEEQQRRIWAALEQAESVNSDSDVPVDTPLTGNSVASSPCPNELDLPVPEGKTSEKQTLDEPEVPEIFTKKSEAGHASSPDSEVTSLCQKEKAELAPVNTEGALLDNGSVVPNCDISNGGSQKLFPADTSPSTATKIHSPIPDMSKFATGITPFEFENMAESTGMYLRIRSLLKNSPRNQQKNKKASE |  |  | binding result (MTR4, full length [2]): binds
Substrate I (dsRNA) RNA 1: AGUGCGCUGUAUCUUCAAGGCCACU RNA 2: AGUGGCCUUGAAGAUACAGCGCACUUUUUUAAAAAAAAAAAAAAA |  | binds | 

Now from value to binder, other results behind:

binding result (MTR4, full length [1]) | Binder | binding result (MTR4;ZCCHC8core;RBM7core) | further results
binds | Copurified complex of Strep-RBM7core and ZCCHC8 1-327 (Z2) (complex) chain 1: AEADRTLFVGNLETKVTEELLFELFHQAGPVIKVKIPKDKDGKPKQFAFVNFKHEVSVPYAMNLLNGIKLYGRPIKIQFRSGSSHAPQD chain 2: MAAEVYFGDLELFEPFDHPEESIPKPVHTRFKDDDGDEEDENGVGDAELRERLRQCEETIEQLRAENQELKRKLNILTRPSGILVNDTKLDGPILQILFMNNAISKQYHQEIEEFVSNLVKRFEEQQKNDVEKTSFNLLPQPSSIVLEEDHKVEESCAIKNNKEAFSVVGSVLYFTNFCLDKLGQPLLNENPQLSEGWEIPKYHQVFSHIVSLEGQEIQVKAKRPKPHCFNCGSEEHQMKDCPMPRNAARISEKRKEYMDACGEANNQNFQQRYHAEEVEERFGRFKPGVISEELQDALGVTDKSLPPFIYRMRQLGYPPGWLKEAE |  | 
binds | Copurified complex of Strep-RBM7core and ZCCHC8 283-415 + 508-707 (Z4) (complex) chain 1: AEADRTLFVGNLETKVTEELLFELFHQAGPVIKVKIPKDKDGKPKQFAFVNFKHEVSVPYAMNLLNGIKLYGRPIKIQFRSGSSHAPQD chain 2: FGRFKPGVISEELQDALGVTDKSLPPFIYRMRQLGYPPGWLKEAELENSGLALYDGKDGTDGETEVGEIQQNKSVTYDLSKLVNYPGFNISTPRGIPDEWRIFGSIPMQACQQKDVFANYLTSNFQAPGVKSGGAVDEDALTLEELEEQQRRIWAALEQAESVNSDSDVPVDTPLTGNSVASSPCPNELDLPVPEGKTSEKQTLDEPEVPEIFTKKSEAGHASSPDSEVTSLCQKEKAELAPVNTEGALLDNGSVVPNCDISNGGSQKLFPADTSPSTATKIHSPIPDMSKFATGITPFEFENMAESTGMYLRIRSLLKNSPRNQQKNKKASE |  | 
binds | PIPDMSKFATGITPFEFENMAESTGMYLRIRSLLKNSPRNQQKNKKASE (domain or fragment) [Strep-tagged ZCCHC8 C-terminal domain (Z5; 659-707)] |  | 
binds | ZCCHC8 283-415 + 508-707 (Z4) (domain or fragment) FGRFKPGVISEELQDALGVTDKSLPPFIYRMRQLGYPPGWLKEAELENSGLALYDGKDGTDGETEVGEIQQNKSVTYDLSKLVNYPGFNISTPRGIPDEWRIFGSIPMQACQQKDVFANYLTSNFQAPGVKSGGAVDEDALTLEELEEQQRRIWAALEQAESVNSDSDVPVDTPLTGNSVASSPCPNELDLPVPEGKTSEKQTLDEPEVPEIFTKKSEAGHASSPDSEVTSLCQKEKAELAPVNTEGALLDNGSVVPNCDISNGGSQKLFPADTSPSTATKIHSPIPDMSKFATGITPFEFENMAESTGMYLRIRSLLKNSPRNQQKNKKASE |  | 
